tested on: Escherichia coli TOP10; assay: shrunken log2 fold change of peptide-encoding DNA abundance (4.5 h post-induction vs induction); higher = less antimicrobial activity (less host growth inhibition); conditions: time post-induction: 4.5 h; library: site-saturation at positions 5, 18, 19, 20
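Also: peptides expressed intracellularly from a pBAD plasmid library in pooled LB shake-flask culture, induced with 0.3% L-arabinose, DNA abundance read by NGS, three biological replicates, DESeq2 with apeglm shrinkage.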

Row | Sequence | shrunken log2 fold change
1 | RRIRNRPPRLPRPRPRPSVWPRP | 0.228
2 | RRIRDRPPRLPRPRPRPWAGPRP | 0.0503
3 | RRIRTRPPRLPRPRPRPQLAPRP | 0.129
4 | RRIRERPPRLPRPRPRPMGSPRP | 0.00489
5 | RRIRIRPPRLPRPRPRPADVPRP | -0.134
6 | RRIRVRPPRLPRPRPRPSPCPRP | -0.145
7 | RRIRSRPPRLPRPRPRPECNPRP | 0.218
8 | RRIRVRPPRLPRPRPRPPDMPRP | -0.239
9 | RRIRFRPPRLPRPRPRPGANPRP | -0.0673
10 | RRIRKRPPRLPRPRPRPFIYPRP | -0.144
11 | RRIRVRPPRLPRPRPRPSTIPRP | -0.136
12 | RRIRHRPPRLPRPRPRPSHSPRP | -0.577
13 | RRIRNRPPRLPRPRPRPRSLPRP | 0.0993
14 | RRIRYRPPRLPRPRPRPIYVPRP | -1.88
15 | RRIRNRPPRLPRPRPRPIDYPRP | -0.168
16 | RRIRPRPPRLPRPRPRPKKMPRP | 2.39
17 | RRIRPRPPRLPRPRPRPYMSPRP | -0.636
18 | RRIRMRPPRLPRPRPRPWPRPRP | 1.25
19 | RRIRCRPPRLPRPRPRPDHEPRP | -0.144
20 | RRIRIRPPRLPRPRPRPFGRPRP | -0.0138
21 | RRIRKRPPRLPRPRPRPFTAPRP | -0.291
22 | RRIRKRPPRLPRPRPRPCARPRP | -0.00716
23 | RRIRVRPPRLPRPRPRPAVLPRP | 1.75
24 | RRIRFRPPRLPRPRPRPLFSPRP | -0.376
25 | RRIRARPPRLPRPRPRPRTWPRP | 0.669

Row | Sequence | shrunken log2 fold change
26 | RRIRRRPPRLPRPRPRPQCDPRP | 0.333
27 | RRIRWRPPRLPRPRPRPLYWPRP | -0.34
28 | RRIRARPPRLPRPRPRPRSPPRP | 0.871
29 | RRIRCRPPRLPRPRPRPWFVPRP | -0.629
30 | RRIRSRPPRLPRPRPRPIWRPRP | 0.639
31 | RRIRPRPPRLPRPRPRPNPSPRP | -0.138
32 | RRIRMRPPRLPRPRPRPFMHPRP | -0.647
33 | RRIRCRPPRLPRPRPRPSMNPRP | -0.757
34 | RRIRCRPPRLPRPRPRPWEDPRP | 0.156
35 | RRIRWRPPRLPRPRPRPAIMPRP | -0.211
36 | RRIRARPPRLPRPRPRPAIWPRP | 0.709
37 | RRIRYRPPRLPRPRPRPQKDPRP | -0.177
38 | RRIRQRPPRLPRPRPRPQKWPRP | 0.0876
39 | RRIRSRPPRLPRPRPRPTFGPRP | -0.0366
40 | RRIRGRPPRLPRPRPRPSLKPRP | 0.441
41 | RRIRIRPPRLPRPRPRPLKPPRP | -0.296
42 | RRIRARPPRLPRPRPRPKLGPRP | 0.023
43 | RRIRWRPPRLPRPRPRPVRAPRP | 0.636
44 | RRIRHRPPRLPRPRPRPRRQPRP | 0.0256
45 | RRIRMRPPRLPRPRPRPTVWPRP | 0.736
46 | RRIRDRPPRLPRPRPRPEYLPRP | 0.0986
47 | RRIRGRPPRLPRPRPRPEAFPRP | 1.86
48 | RRIRTRPPRLPRPRPRPKLFPRP | -0.0805
49 | RRIRTRPPRLPRPRPRPTRGPRP | 0.705
50 | RRIRERPPRLPRPRPRPDCPPRP | -0.559

Row | Sequence | shrunken log2 fold change
51 | RRIRERPPRLPRPRPRPAHTPRP | -0.0788
52 | RRIRIRPPRLPRPRPRPWRSPRP | 0.00683
53 | RRIRIRPPRLPRPRPRPPKTPRP | -0.00537
54 | RRIRERPPRLPRPRPRPRVKPRP | -0.207
55 | RRIRQRPPRLPRPRPRPEYFPRP | -0.0285
56 | RRIRDRPPRLPRPRPRPKTSPRP | 0.0412
57 | RRIRMRPPRLPRPRPRPTCYPRP | 0.0375
58 | RRIRRRPPRLPRPRPRPHQFPRP | -0.183
59 | RRIRRRPPRLPRPRPRPFDWPRP | 0.0636
60 | RRIRTRPPRLPRPRPRPAKIPRP | 0.0299
61 | RRIRHRPPRLPRPRPRPKRCPRP | -0.0661
62 | RRIRFRPPRLPRPRPRPHGAPRP | 0.109
63 | RRIRGRPPRLPRPRPRPVKDPRP | 0.68
64 | RRIRSRPPRLPRPRPRPYNRPRP | -0.267
65 | RRIRGRPPRLPRPRPRPQNWPRP | 0.0915
66 | RRIRFRPPRLPRPRPRPQTYPRP | -0.69
67 | RRIRTRPPRLPRPRPRPRPWPRP | 0.0956
68 | RRIRPRPPRLPRPRPRPKRDPRP | 0.0476
69 | RRIRSRPPRLPRPRPRPKKMPRP | -0.178
70 | RRIRHRPPRLPRPRPRPYYYPRP | -1.31
71 | RRIRWRPPRLPRPRPRPCTCPRP | 0.0236
72 | RRIRMRPPRLPRPRPRPVCGPRP | 0.898
73 | RRIRDRPPRLPRPRPRPVSQPRP | -0.0185
74 | RRIRARPPRLPRPRPRPFFNPRP | -0.0671
75 | RRIRQRPPRLPRPRPRPCSWPRP | 0.171

Source: the supplement of paper PMC9112550, “Optimization of the antimicrobial peptide Bac7 by deep mutational scanning” (BMC Biology, 2022)
